Results taken from article PMC6057844 (Biochemical and biophysical research communications, 2018).

Target: the molecule itself

B1: Drp1 in HD mouse striatal cells (natural protein, UniProt Q8K1M6 1-736, looked up)
chain: MEALIPVINKLQDVFNTVGADIIQLPQIVVVGTQSSGKSSVLESLVGRDLLPRGTGVVTRRPLILQLVHVSPEDKRKTTGEENGVEAEEWGKFLHTKNKLYTDFDEIRQEIENETERISGNNKGVSPEPIHLKVFSPNVVNLTLVDLPGMTKVPVGDQPKDIELQIRELILRFISNPNSIILAVTAANTDMATSEALKISREVDPDGRRTLAVITKLDLMDAGTDAMDVLMGRVIPVKLGIIGVVNRSQLDINNKKSVTDSIRDEYAFLQKKYPSLANRNGTKYLARTLNRLLMHHIRDCLPELKTRINVLAAQYQSLLNSYGEPVDDKSATLLQLITKFATEYCNTIEGTAKYIETSELCGGARICYIFHETFGRTLESVDPLGGLNTIDILTAIRNATGPRPALFVPEVSFELLVKRQIKRLEEPSLRCVELVHEEMQRIIQHCSNYSTQELLRFPKLHDAIVEVVTCLLRKRLPVTNEMVHNLVAIELAYINTKHPDFADACGLMNNNIEEQRRNRLARELPSAGSRDKSSKVPSALAPASQEPPPAASAEADGKLIQDNRRETKNVPSAGGGIGDGGQEPTTGNWRGMLKTSKAEELLAEEKSKPIPIMPASPQKGHAVNLLDVPVPVARKLSAREQRDCEVIERLIKSYFLIVRKNIQDSVPKAVMHFLVNHVKDTLQSELVGQLYKSSLLDDLLTESEDMAQRRKEAADMLKALQGASQIIAEIRETHLW
stoichiometry N: 4
